# Experimental data as given in patent US20050069542A1 (Human Genome Sciences, published 2005).
# T1: flag-tagged soluble TL3 (amino acids 105-251 of SEQ ID NO:234) (Homo sapiens (Human), UniProt O75888 105-250)
# T1 construct: Heterologous flag-tagged control protein, immobilized in the ELISA; also called flagged tagged TL-3; not shown: Flag tag
# T1 sequence: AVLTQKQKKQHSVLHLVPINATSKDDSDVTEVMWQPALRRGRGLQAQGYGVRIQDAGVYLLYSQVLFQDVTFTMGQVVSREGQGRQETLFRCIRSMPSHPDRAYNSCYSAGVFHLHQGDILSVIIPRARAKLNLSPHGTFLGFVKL
# Molecular target: T1, flag-tagged soluble TL3 (amino acids …)
# Assay: phage ELISA on immobilized flag-tagged soluble TL3
# Method in brief: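 Phage displaying scFvs selected against flag-tagged GMAD were screened by ELISA against immobilized flag-tagged soluble TL3 (residues 105-251) as a heterologous flag-tagged counter-target, to check that binding is GMAD-specific.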
row,binding result,Binder
1,no binding,GMCC129 (scFv) scFv: EVQLVETGGGLAQPGGSLRLSCEASGFTFNNYAMSWVRQAPGKGLEWVSGISISGYSTFYTDSVQGRFTISRDNSKNTLYLQMNSLGVDDTAVYYCAKRRGEGGDFDYWGRGTMVTVSSGGGGSGGGGSGGGGSALSSELTQDPAVSVALGQTVRITCQGDSLRGYYASWYQQKAGQAPVLVIYGKNNRPSGIPDRFSGSSSGNTASLTITGAQAEDEADYYCYSRDRSGNHLGMFGGGTKVTVLG
2,no binding,GMCC119 (scFv) scFv: EVQLVQSGPEVKKPGASVKVSCKASNYTFTTYDISWVRQAPGQGLEWMGWISTYSGNTKYAQKFQGRVTMTRDTSTSAAYMELRNLRSDDTAVYFCARDIRVWRGSGSVHYFDPWGRGTTVTVSSGGGGSGGGGSGGGGSAQSALTQPRSVSGSPGQSVTISCTGTSNDVGGYNFVSWYQQHPGKAPKLMVYNVSKRPSGVPDRFSGSKSGNTASLTISGLQAEDEADYYCSSYAHSYTLVFGGGTKVTVLG
3,no binding,GMCC125 (scFv) scFv: EVQLVQSGGGLVKPGGSLRLSCAASGFSFSDYSMHWIRQAPGKGLEWLSHIGTSTSYTNYADSVKGRFTISRDNAKNSFYLQMNSLRVDDTAVYFCARGFGGLRGYFDYWGQGTLVTVSSGGGGSGGGGSGGGGSALSSELTQDPAVSVALGQTVKITCQGDRLRRFYASWYQQKPGQAPLLLIYGKNSRPSGIPDRFSGSTSGATASLTITGAQAEDEADYYCNSRDSSGSLHSVFGTGTKVTVLG
4,no binding,GMCC126 (scFv) scFv: QVQLQESGPGLVKPSQTLSLSCAVSGFSVTSGHYWGWIRQSPGKGLEWIGNIYHTGSTRYNPSLESRVSMSVDTSKNQFSLRLTSVTAADTAIYYCARVGRGQHLVRGDFDYWGRGTLVTVSSGGGGSGGGGSGGGGSAQSVLTQPPSISVSPGQTASITCSGDELGHKYASWYQQKPGQSPVVVVYQDNKRPSGIPERFSGSSSGNTATLTISGTQAVDEADYFCQAWDSSAVVFGGGTKLTVLG
5,no binding,GMCC131 (scFv) scFv: QVQLQESGPGLVKPSETLSLTCSVSGGSIRSHYWSWMRQPPGKGLEWIGYVYYTGSTNYNPSLKSRVTMSVDTSKNQFSLNLSSVTAADTAIYYCARFPYSSGSNPLDYWGRGTLVTVSSGGGGSGGGGSGGGGSAQSVLTQPPSVSAAPGQRVTISCTGSSSNIGARYDVHWYQHLPGTAPKLLIYGDSNRPSGVPDRFSGSKSGTSASLAITGLQPEDEADYYCQSYDSSLSGVVFGGGTKVTVLG
6,no binding,GMCC124 (scFv) scFv: QVTLKESGAEVKKPGASVKVSCKASGYTFTDNALHWVRQAPGQRPEWMAWINTANGNTRYSQKFQGRLTITRDTSASTAFMDLSSLRSEDTAVYYCARQKAYKNYYYYYGMDVWGQGTLVTVSSGGGGSGGGGSGGGGSAQSVVTQPPSVSAAPGQKVTISCSGSSSNIGNNYVSWYQQLPGTAPKLLIYENNKRPSGIPDRFSGSQSGTSATLGISGLQTGDEADYYCGTWDSSLRAGVFGGGTKLTVLG
7,no binding,GMCC127 (scFv) scFv: QVQLVQSGGGVVRPGGSLRLSCAASGFTFDDYGMSWVRQAPGKGLEWVSGINWNGGSTGYADSVKGRFTISRDNAKNSLYLQMNSLRAEDTAVYYCARRRYALDYWGRGTLVTVSSGGGGSGGGGSGGGGSALSSELTQDPAVSVALGQAVRITCQGDSLRTNYASWYQQRPGQAPVLVIRGNNNRPSGIPDRFSGSNSGDTVSLTITGAQAEDEADYYCNSRDTSGYHYVFGTGTKLTVLG
8,no binding,GMBC612 (scFv) scFv: EVQLVESGGGVVQPGGSLRLSCAASGFSFSSYGMQWVRQAPGKGLEWVAFIRYDGSIKYYADSVKGRFTVSRDNSKNTLYLQMNSLRAEDTAVYYCARGYRIVDYWGQGTLVTVSSGGGGSGGGGSGGGGSDIQMTQSPSTLSPSIGDRVTITCRASEGIYHWLAWYQQKPGKAPKLLIYKASSLASGAPSRFSGSGSGTDFTLTISSLQPDDFATYYCQQYSNYPLTFGGGTKLEIKR
